Source: publication PMC8710476 (Frontiers in Immunology, 2021)

Biological target: Recombinant SARS-CoV-2 RBD (residues R319–F541) (SARS-CoV-2, UniProt P0DTC2)
Assay: SPR
Details: both partners purified

B1: REGN10987 (class III) (antibody, V domains shown)
VH: QVQLVESGGGVVQPGRSLRLSCAASGFTFSNYAMYWVRQAPGKGLEWVAVISYDGSNKYYADSVKGRFTISRDNSKNTLYLQMNSLRTEDTAVYYCASGSDYGDYLLVYWGQGTLVTVSS
VL: QSALTQPASVSGSPGQSITISCTGTSSDVGGYNYVSWYQQHPGKAPKLMIYDVSKRPSGVSNRFSGSKSGNTASLTISGLQSEDEADYYCNSLTSISTWVFGGGTKLTVL
  Kd: < 0.01 nM
